The text below walks through data of US6686177B1, “Insulin analogs with enhanced zinc binding” (Aventis Pharma Deutschland GmbH, priority 1998, dated 2004).

Data set [1] can be described thus: Zinc binding of insulin analogs (dialysis against zinc-free neutral buffer, HPLC and atomic absorption spectroscopy). It counts as physicochemical. As to conditions: for Zinc binding: after extensive dialysis against zinc-free neutral buffer, pH 7.4; for zinc ions bound per hexamer: aqueous neutral solution, not removable by dialysis.
Experimental: The dialyzates were then acidified and analyzed. The concentration of insulin was determined by reversed phase HPLC and that of the zinc by atomic absorption spectroscopy. The zinc values were corrected using the zinc content of a control batch which contained no insulin.
The conditions of data set [2]: aqueous neutral solution, not removable by dialysis; cited from earlier work.

As to Asp(B3)-human insulin [Asp(B3)-insulin], in data set [1], the Zinc binding is 4.2 mol of zinc/mol of hexamer and the “zinc ions bound per hexamer” value was found to be 4.2 zinc ions/hexamer.
The like results for His(B3)-human insulin [His(B3)-insulin] were, in that order, 6.9 mol of zinc/mol of hexamer and “approximately 7 zinc ions/hexamer”.
Regarding human insulin [reference compound], the “zinc ions complexed per hexamer via the His(B10) side chains” value in data set [2] is recorded as “two”. Besides, in data set [1], the Zinc binding was 2.5 mol of zinc/mol of hexamer.
